± gives the uncertainty stated by the source.
Test: amyloid nucleation score (Sup35N fusion, yeast selection) (log enrichment); library NNK1; higher = more nucleation; inactive = no reads after selection
Outline: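 Using DiMSum, nucleation scores were taken as the log enrichment of output over input reads, centred on the mode score of non-aggregating sequences. The input and output reads came from Illumina sequencing of plasmid inserts, with sequences under 100 input reads excluded. The yeast were psi-negative, expressed Sup35N fused to peptides of 20 random codons, were induced with 100 μM copper sulfate for 24 hours, and were grown 7 days at 30°C on medium lacking adenine and uracil.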

| Substance | amyloid nucleation score |
| --- | --- |
| LAWLQCRAGETFITWRHQFY | 0.544 ± 0.55 |
| HDLEIPICTWEYSVVIQGLQ | 0.005 ± 1.4 |
| VQPDDLARTGRLQLVLLVWN | -0.883 ± 0.92 |
| QVLSHSKHNIVLDYHLETCG | 1.84 ± 0.38 |
| SLSYFSSFI | inactive |
| CLGAVIDSGNHSNSCYIRGD | 2.07 ± 0.67 |
| GMQIKYNLCSRKTLVENGIS | 3.48 ± 0.12 |
| CCSRGLKVPDANRASKSGCE | 1.08 ± 0.52 |
| FQVFYFGCGRHVMVSSYRWV | -0.363 ± 0.54 |
| DITNVAWNMPNTRCEPKPLK | 0.444 ± 1.2 |
| CISAVPCM | 0.497 ± 0.43 |
| LVYILMLYWVYGQIGNFSLV | -0.955 ± 0.9 |
| TVIEIKL | 1.28 ± 0.85 |
| AEYNVGLLSCSNDSLWDQWS | inactive |
| CVRLHPSDWAFYRAPFNKHG | 0.659 ± 0.55 |
| RMDSRKGTNNKSFSGGLEYR | -0.366 ± 0.32 |
| WVAVRDMKGYRSRKKGQSWH | 0.199 ± 0.5 |
| GVDGYDLRGLSWEVAKEFKS | 0.73 ± 0.67 |
| LYNSRTWMIGIGSPAQIV | -0.731 ± 0.61 |
| LIKYFNINYNGCSAVPWGSP | 5.981 ± 0.056 |
| CCLTILSIS | -0.281 ± 0.31 |
| YSSSPVFGCEAPGDYQLGY | 1.24 ± 0.76 |
| KWKVR | -0.068 ± 0.38 |
| MPVFSFLWPMKDMPHKVLS | 0.364 ± 0.36 |

| Substance | amyloid nucleation score |
| --- | --- |
| AELVQFSCLKLSFKSSENPS | 3.06 ± 0.21 |
| PTSSMI | 0.488 ± 1 |
| DYYYSFMKTANR | -0.087 ± 0.3 |
| HSVIIALRGCIRIG | 2.25 ± 0.15 |
| LSHWMPVN | -0.527 ± 0.34 |
| RALRGSECGMNRRPLRGCVK | -0.167 ± 0.22 |
| ELLACGIKRRVVKTGVRTAY | -0.407 ± 1.2 |
| VHNCMVFLLKFIDSRHFIVI | -0.292 ± 1.6 |
| CVELVLSCV | -0.095 ± 0.43 |
| VRCLLRYLLLESPQFINV | 1.7 ± 0.36 |
| YWTDGLFGDAT | 0.141 ± 0.31 |
| NVFCPVHENVSRLLQRHTRL | 1.1 ± 0.53 |
| QGLAGHLSRRYFY | -1.96 ± 2.1 |
| LIFMMDEVMYNGVSCFVRRE | 0.136 ± 0.69 |
| DMYYNQTRVQKPPVMPQSLK | -0.667 ± 0.78 |
| DSSHVRLWQYWIMWMLVVNA | 1.06 ± 0.39 |
| NTDSLLFNLISLMRNRERFK | 0.351 ± 0.54 |
| SMGWYGYFLYLNCDDSFPYW | 3.79 ± 0.069 |
| CFILTVTYLNVGGNRMTAFH | 3.36 ± 0.1 |
| HPSSKLSRMCLD | 0.717 ± 0.93 |
| GVMGYFVC | -0.405 ± 0.27 |
| VCWLGIKCVRVISNWLCAQS | -1.04 ± 1.6 |
| YKLKFIRGACHSS | 0.9 ± 0.63 |
| TVHSLV | -0.276 ± 0.38 |

| Substance | amyloid nucleation score |
| --- | --- |
| IRTVAR | 0.142 ± 0.38 |
| RNQDLLHFLVVGIAVKKYNY | -0.598 ± 0.35 |
| MVDSYWGWCAMK | 1.22 ± 0.61 |
| IENGLYMSLYLGNQRI | 1.47 ± 0.29 |
| CMIIRVGGRQGIHYSFSRMD | -0.652 ± 0.26 |
| ISTNLHGDIKMVFVAIPWQE | 4.85 ± 0.09 |
| PHGKRPGHFLKVLLAFSWRW | 0.038 ± 0.56 |
| LESFWGSPA | 0.445 ± 1.2 |
| CWFTAVLARPLWNSSVSSVA | -0.369 ± 0.34 |
| VCHAVRISISSSASTLAE | -0.122 ± 0.33 |
| LCITRT | -0.521 ± 0.56 |
| VYSYYLLLGLW | 3.66 ± 0.084 |
| WQLYIEYFE | 0.128 ± 0.36 |
| NYRFVCEPYFYSNCPPAQWT | 0.02 ± 0.59 |
| TDSEVAFVNGTNSQRWFFGW | 1.07 ± 0.53 |
| NWHAVNCRSPST | 1.07 ± 0.51 |
| IGCSCGLHT | inactive |
| RSYCKRALMLDWFAISRMRL | 0.082 ± 0.51 |
| GFSMTKCAYTNTH | 1.68 ± 0.17 |
| MVGDARFYAANSG | 1.14 ± 0.79 |
| RDNKLSVAVVMQSYSVGESG | -0.034 ± 0.89 |
| YSDCDGTMCYVDAYMCGYMA | 3.46 ± 0.077 |
| LNSLNVGLVEDKQYILYER | 1.68 ± 0.39 |

Source: the supplement of paper PMC12042874
